Laboratory results reported in US10429300B2, “Surface plasmon resonance approach to monitor protein-ligand interactions” (The Johns Hopkins University, priority 2015, dated 2019).

T1: rNav1.2a VSD IV paddle peptide (R1629A/L1630A, SEQ ID NO: 4) (Rattus norvegicus, UniProt P04775, L1630A/R1629A)
T1 construct: purchased ProteoGenix; host or cells: chemical synthesis (Fmoc solid phase)
T1 sequence (P04775 1605-1636 R1629A/L1630A): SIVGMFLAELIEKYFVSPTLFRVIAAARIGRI

T2: rNav1.2a VSD II paddle peptide (V843A, SEQ ID NO: 2) (Rattus norvegicus, UniProt P04775, V843A)
T2 construct: purchased ProteoGenix; host or cells: chemical synthesis (Fmoc solid phase)
T2 sequence (P04775 832-856 V843A): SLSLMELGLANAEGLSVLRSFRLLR

B1: AaHI: Nav channel-selective α-scorpion toxin from Androctonus australis hector (protein)
chain: KRDGYIVYPNNCVYHCVPPCDGLCKKNGGSSGSCSFLVPSGLACWCKDLPDNVPIKDTSRKCT
B2: LqqV: Nav channel-selective α-scorpion toxin from Leiurus quinquestriatus hebraeus (protein)
chain: LKDGYIVDDKNCTFFCGRNAYCNDECKKKGGESGYCQWASPYGNACWCYKLPDRVSIKEKGRCN
B3: BomIV: α-like scorpion toxin from Buthus occitanus mardochei (protein)
chain: GRDAYIAQPENCVYECAKNSYCNDLCTKNGAKSGYCQWLGKYGNACWCEDLPDNVPIRIPGKCHF
B4: TsVII: β-scorpion toxin from the Brazilian scorpion Tityus serrulatus (protein, UniProt P15226 21-81, looked up)
Beta-mammal/insect toxin Ts1: KEGYLMDHEGCKLSCFIRPSGYCGRECGIKKGSSGYCAWPACYCYGLPNWVKVWDRATNKC

Experiments:
[1] = target: T1, rNav1.2a VSD IV paddle peptide (R1629A/L1630A, SEQ ID NO: 4); assay: SPR on immobilized rNav1.2a VSD IV paddle peptide; type: binding; settings: 100 nM toxin; 500 fmol peptide
[2] = target: T2, rNav1.2a VSD II paddle peptide (V843A, SEQ ID NO: 2); assay: SPR on immobilized rNav1.2a VSD II paddle peptide; type: binding; settings: 100 nM toxin; 500 fmol peptide
Description: SPR experiments were performed at 25° C. on a Biacore™ T200 instrument (GE Healthcare) using 150 mM NaCl, 3 mM EDTA, 0.005% surfactant P20, and 10 mM HEPES-NaOH, pH 7.4, for the coupling protocol or 50 mM phosphate, pH 7.2, as running buffer. Neutravidin (Thermo Fisher Scientific) was immobilized on CM5 sensor chips (GE Healthcare) using an amine coupling chemistry. All chemicals were obtained from Sigma-Aldrich. […] In all SPR experiments, nonspecific binding obtained in the control flow cell was subtracted from the signal obtained in the experimental flow cell. For qualitative binding analysis, toxins (100 nM in running buffer containing 0.1% BSA) were injected at a flow rate of 20 μl/min over 2 min. […] In between injections, the surface of the sensor chip was regenerated by injecting 1 M NaCl (15 s at 30 l/min). The bulk signal caused by refractive index differences between the flow buffer and the buffer containing the analyte was systematically excluded from the data-fitting process. It is worth noting that isolating a paddle motif (ligand) can induce conformational changes that can affect toxin (analyte) efficacy. […] Sensorgrams can reveal such ligand heterogeneity by displaying biphasic dissociation curves that cannot be fitted with the frequently used Langmuir model, which assumes a 1:1 stoichiometry of analyte to ligand. To account for a possible heterogeneity of surface sites, we calculated the rate constants and affinity equilibrium dissociation constants (KD) for AaHII by a fit to a heterogeneous ligand model incorporated into the Biacore T200 Evaluation™ software (v1.0). This model assumes the presence of two sites on the ligand that can bind analyte and can be described by these equations in which A represents the analyte and B1/B2 represents the heterogeneous ligand:
(A) Shown are the CD spectra of the rNav1.2a VSD II and IV paddle peptides used in this paper. […] (B) Representative association and dissociation kinetic curves obtained using SPR after the application of varying concentrations of AaHII (15-2,000 nM) over a sensor chip to which 50 fmol of the rNav1.2a VSD IV paddle peptide was linked. Toxin was applied after obtaining a steady baseline. Colored traces represent toxin binding obtained after subtraction of the signal from the control flow cell. […] Toxin concentrations are indicated on the right in a shade of gray corresponding to the sensorgram. (C) Representative SPR traces after the application of 100 nM KTX, AaHI, AaHII, LqqV, BomIV, TsVII, and CssIV over a sensor chip to which the rNav1.2a VSD II (left) or IV (right) paddle peptide (500 fmol) was linked. Toxin was applied after obtaining a steady baseline. (D) Binding capacities of 100 nM α-scorpion toxins AaHI, AaHII, LqqV, the α-like scorpion toxin BomIV, and the β-scorpion toxins TsVII and CssIV to the VSD II and IV paddle motifs using SPR (error bars represent±SEM). Y-axis represents the maximum RUs obtained after toxin application.
Next, the VSD IV peptide was fixed on SPR sensor chips by adding a K-linked biotin group to the C terminus, resulting in a 32-amino acid peptide altogether (SEQ ID NO: 4 which is mutated SEQ ID NO: 3 of FIG. 2A).

rNav1.2a = assay: Two-electrode voltage-clamp, rNav1.2a expressed in Xenopus oocytes; type: cell-based, rat; settings: 100 nM toxin; for effect on rNav1.2a fast inactivation: 50-ms test pulse; for fast inactivation time constant (τ) after toxin application: single-exponential fit of current decay, n=3, mean±SEM
Text: (§1) The DNA sequence of rat (r)Nav1.2a (provided by A. Goldin, University of California, Irvine, Irvine, Calif.), rKv2.1 (provided by K. J. Swartz, National Institutes of Health), and the rNav1.2a/Kv2.1 VSD II or IV chimera was confirmed by automated DNA sequencing, and cRNA was synthesized using T7 polymerase (mMessage mMachine™ kit; Life Technologies) after linearizing the DNA with appropriate restriction enzymes. Channels were expressed in Xenopus oocytes (obtained from Xenopus 1) and studied after a 1-d incubation after cRNA injection (incubated at 17° C. in 96 mM NaCl, 2 mM KCl, 5 mM HEPES, 1 mM MgCl2, 1.8 mM CaCl2, and 50 μg/ml gentamycin, pH 7.6 with NaOH) using two-electrode voltage-clamp recording techniques (OC-725C; Warner Instruments) with a 150-μl recording chamber. Data were filtered at 4 kHz and digitized at 20 kHz using pClamp™ 10 software (Molecular Devices). Microelectrode resistances were 0.5-1.5 MΩ when filled with 3 M KCl. For Kv chimera channel experiments, the external recording solution contained (mM): 50 KCl, 50 NaCl, 5 HEPES, 1 MgCl2, and 0.3 CaCl2, pH 7.6 with NaOH. For rNav1.2a experiments, the external recording solution contained (mM): 100 NaCl, 5 HEPES, 1 MgCl2, and 1.8 CaCl2, pH 7.6 with NaOH. All experiments were performed at ˜22° C. Leak and background conductances, identified by blocking the channel with agitoxin-2 (provided by K. J. Swartz), have been subtracted for all of the Kv channel currents shown. […] Voltage-activation relationships were obtained by measuring tail currents for Kv channels or steady-state currents and calculating conductance for Nav channels, and a single Boltzmann function was fitted to the data according to I/Imax=[1c+cexp(−zF(Vc−cV1/2)/RT)]^−1, where I/Imax is the normalized tail-current amplitude, z is the equivalent charge, V1/2 is the half-activation voltage, F is Faraday's constant, R is the gas constant, and T is temperature in kelvin. For all channels, voltage-activation relationships were recorded in the absence and presence of toxin. The ratio of currents (I/I0) recorded in the presence (I) and absence (I0) of toxin was calculated for voltages typically ranging from −140 to 10 cmV, depending on the construct. […] The apparent equilibrium dissociation constant (apparent KD) for Kv channels was calculated according to KD=((1/(1c−cFu^1/4))c−c1)[toxin], assuming four independent toxin-binding sites per channel. Results are given as mean±SEM unless noted otherwise. Offline data analysis was performed using Clampfit 10™ (Molecular Devices), Origin 8.0™ (OriginLab), and Excel™ (Microsoft). All chemicals were obtained from Sigma-Aldrich.
(§2) Representative sodium currents were elicited by a 50-ms depolarization to a suitable membrane voltage (−20 to −15 mV) before (black) and after toxin addition (green) from a holding voltage of −90 mV. […] For each toxin, K^+ currents were elicited by a 300-ms depolarization to 0 mV from a holding voltage of −90 mV (tail voltage was −60 mV). […] For each toxin, K^+ currents (top) were elicited by a 300-ms depolarization near the foot of the voltage-activation curve (bottom) from a holding voltage of −90 mV.

WT rKv2.1 = assay: Two-electrode voltage-clamp, WT rKv2.1 in Xenopus oocytes; type: cell-based, rat; settings: 1 μM toxin
Text: The DNA sequence of rat (r)Nav1.2a (provided by A. Goldin, University of California, Irvine, Irvine, Calif.), rKv2.1 (provided by K. J. Swartz, National Institutes of Health), and the rNav1.2a/Kv2.1 VSD II or IV chimera was confirmed by automated DNA sequencing, and cRNA was synthesized using T7 polymerase (mMessage mMachine™ kit; Life Technologies) after linearizing the DNA with appropriate restriction enzymes. Channels were expressed in Xenopus oocytes (obtained from Xenopus 1) and studied after a 1-d incubation after cRNA injection (incubated at 17° C. in 96 mM NaCl, 2 mM KCl, 5 mM HEPES, 1 mM MgCl2, 1.8 mM CaCl2, and 50 μg/ml gentamycin, pH 7.6 with NaOH) using two-electrode voltage-clamp recording techniques (OC-725C; Warner Instruments) with a 150-μl recording chamber. Data were filtered at 4 kHz and digitized at 20 kHz using pClamp™ 10 software (Molecular Devices). Microelectrode resistances were 0.5-1.5 MΩ when filled with 3 M KCl. For Kv chimera channel experiments, the external recording solution contained (mM): 50 KCl, 50 NaCl, 5 HEPES, 1 MgCl2, and 0.3 CaCl2, pH 7.6 with NaOH. For rNav1.2a experiments, the external recording solution contained (mM): 100 NaCl, 5 HEPES, 1 MgCl2, and 1.8 CaCl2, pH 7.6 with NaOH. All experiments were performed at ˜22° C. Leak and background conductances, identified by blocking the channel with agitoxin-2 (provided by K. J. Swartz), have been subtracted for all of the Kv channel currents shown. […] For all channels, voltage-activation relationships were recorded in the absence and presence of toxin. The ratio of currents (I/I0) recorded in the presence (I) and absence (I0) of toxin was calculated for voltages typically ranging from −140 to 10 cmV, depending on the construct. […] The apparent equilibrium dissociation constant (apparent KD) for Kv channels was calculated according to KD=((1/(1c−cFu^1/4))c−c1)[toxin], assuming four independent toxin-binding sites per channel. […]

[3] = test system: rNav1.2a/Kv2.1 VSD IV paddle chimera; assay: Two-electrode voltage-clamp, rNav1.2a/Kv2.1 VSD IV paddle chimera in Xenopus oocytes; type: cell-based, rat; settings: 100 nM toxin; for depolarizing shift in midpoint (V1/2): Boltzmann fit, n=3
Sequence of rNav1.2a/Kv2.1 VSD IV paddle chimera (P04775 1605-1636 limits assumed, change not shown): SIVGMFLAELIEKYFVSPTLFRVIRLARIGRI
Text: as §1, §2

[4] = test system: rNav1.2a/Kv2.1 VSD IV paddle chimera; settings: cited from earlier work
[5] = target: rNav1.2a/Kv2.1 VSD II paddle chimera; settings: read-out: apparent KD, paddle motif in the domain II voltage sensor; cited from earlier work
Sequence of rNav1.2a/Kv2.1 VSD II paddle chimera (P04775 832-856 limits assumed, change not shown): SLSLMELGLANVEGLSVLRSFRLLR

Row | Molecule | SPR binding to VSD IV paddle peptide [1] | SPR binding to VSD II paddle peptide [2] | effect on rNav1.2a fast inactivation (rNav1.2a) | fast inactivation time constant (τ) after toxin application (rNav1.2a) | effect on WT Kv2.1 K+ current (WT rKv2.1) | K+ current inhibition of VSD IV chimera [3] | depolarizing shift in midpoint (V1/2) [3] [mV] | binding to the VSD IV paddle, electrophysiological data from chimeras [4] | Kd [5] [nM]
1 | kaliotoxin (GVEINVKCSGSPQCLKPCKDAGMRFGKCMNRKCHCTPK) [KTX, negative control, reference compound] | did not bind | did not bind |  |  |  |  |  |  | 
2 | B1 |  | a response was not obtained | inhibits rNav1.2a fast inactivation | 4.7±0.1 | insensitive | robust voltage-dependent K^+ current inhibition | ~15 |  | 
3 | B2 |  | a response was not obtained | inhibits rNav1.2a fast inactivation | 4.6±0.1 | insensitive | robust voltage-dependent K^+ current inhibition | > 50 |  | 
4 | B3 |  | a response was not obtained | inhibits rNav1.2a fast inactivation | 8.5±0.1 | insensitive | robust voltage-dependent K^+ current inhibition | ~26 |  | 
5 | B4 | responded | responded |  |  |  |  |  | can also bind | 112 ± 12
